Data reported in PMC2121028.

Target: SNF1/GAL4(1-147)
Experiment: two-hybrid
Conditions: scale: units

Sequence of SNF1/GAL4(1-147) (P06782 whole entry, the tested form may be a part): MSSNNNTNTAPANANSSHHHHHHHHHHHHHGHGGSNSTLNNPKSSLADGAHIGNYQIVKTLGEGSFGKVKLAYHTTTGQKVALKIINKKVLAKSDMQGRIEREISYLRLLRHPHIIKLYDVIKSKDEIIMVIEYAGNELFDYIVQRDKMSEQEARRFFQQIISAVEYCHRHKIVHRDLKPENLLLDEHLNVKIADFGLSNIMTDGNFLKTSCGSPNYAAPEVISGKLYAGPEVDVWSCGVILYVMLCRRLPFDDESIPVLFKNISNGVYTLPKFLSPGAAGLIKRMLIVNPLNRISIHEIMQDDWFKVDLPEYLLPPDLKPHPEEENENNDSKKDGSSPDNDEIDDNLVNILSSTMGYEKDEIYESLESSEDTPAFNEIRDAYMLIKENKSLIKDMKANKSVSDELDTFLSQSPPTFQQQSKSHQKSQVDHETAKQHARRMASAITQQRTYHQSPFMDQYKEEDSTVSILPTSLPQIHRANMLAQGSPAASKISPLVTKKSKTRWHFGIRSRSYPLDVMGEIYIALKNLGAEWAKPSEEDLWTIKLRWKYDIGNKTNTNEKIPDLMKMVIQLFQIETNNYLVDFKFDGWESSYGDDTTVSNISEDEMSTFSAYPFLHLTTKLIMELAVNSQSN
Sequence of SNF4/GAL4(768-881) (natural protein) (P12904 whole entry, the tested form may be a part): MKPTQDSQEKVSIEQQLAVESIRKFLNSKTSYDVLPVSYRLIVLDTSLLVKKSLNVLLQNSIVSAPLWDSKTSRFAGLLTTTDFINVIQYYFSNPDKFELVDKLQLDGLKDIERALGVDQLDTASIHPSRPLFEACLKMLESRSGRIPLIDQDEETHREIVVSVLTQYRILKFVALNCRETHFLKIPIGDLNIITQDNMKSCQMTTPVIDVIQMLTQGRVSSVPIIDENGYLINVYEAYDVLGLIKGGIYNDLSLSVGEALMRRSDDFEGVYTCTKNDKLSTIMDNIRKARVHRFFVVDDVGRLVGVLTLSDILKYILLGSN

For SNF4/GAL4(768-881) (natural protein), the beta-galactosidase activity was 500.
